Assay results as given in US20140274782A1, “AFFINITY REAGENTS AND METHODS FOR DETECTION, PURIFICATION, AND PROTEOMIC ANALYSIS OF METHYLATED PROTEINS” (The Board of Trustees of the Leland Stanford Junior …, priority 2013, published 2014).

Assays:
[1] = target: T1, G9a and GLP (Homo sapiens, UniProt Q96KQ7+Q9H9B1); test: Triple SILAC pull-down after UNC0638 treatment of 293T cells, DMSO/UNC0638 ratio of protein captured by 3×MBT; type: cell-based; conditions: for Relative to UNC0638 UNC Heavy: UNC0638 in heavy SILAC media; for Relative to UNC0638 UNC Light: UNC0638 in light SILAC media; for Relative to UNC0638 Average: average of UNC Light and UNC Heavy experiments;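 for all read-outs here: mass spectrometry (Q-Exactive) SILAC quantitation, DMSO/UNC0638 ratio computed after subtracting 3×MBTD355N mutant pull-down background, only proteins with at least twofold 3×MBT over mutant signal considered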
T1 construct: endogenous in cells; host or cells: HEK 293T
T1 sequence (Q96KQ7 2-1210 limits assumed): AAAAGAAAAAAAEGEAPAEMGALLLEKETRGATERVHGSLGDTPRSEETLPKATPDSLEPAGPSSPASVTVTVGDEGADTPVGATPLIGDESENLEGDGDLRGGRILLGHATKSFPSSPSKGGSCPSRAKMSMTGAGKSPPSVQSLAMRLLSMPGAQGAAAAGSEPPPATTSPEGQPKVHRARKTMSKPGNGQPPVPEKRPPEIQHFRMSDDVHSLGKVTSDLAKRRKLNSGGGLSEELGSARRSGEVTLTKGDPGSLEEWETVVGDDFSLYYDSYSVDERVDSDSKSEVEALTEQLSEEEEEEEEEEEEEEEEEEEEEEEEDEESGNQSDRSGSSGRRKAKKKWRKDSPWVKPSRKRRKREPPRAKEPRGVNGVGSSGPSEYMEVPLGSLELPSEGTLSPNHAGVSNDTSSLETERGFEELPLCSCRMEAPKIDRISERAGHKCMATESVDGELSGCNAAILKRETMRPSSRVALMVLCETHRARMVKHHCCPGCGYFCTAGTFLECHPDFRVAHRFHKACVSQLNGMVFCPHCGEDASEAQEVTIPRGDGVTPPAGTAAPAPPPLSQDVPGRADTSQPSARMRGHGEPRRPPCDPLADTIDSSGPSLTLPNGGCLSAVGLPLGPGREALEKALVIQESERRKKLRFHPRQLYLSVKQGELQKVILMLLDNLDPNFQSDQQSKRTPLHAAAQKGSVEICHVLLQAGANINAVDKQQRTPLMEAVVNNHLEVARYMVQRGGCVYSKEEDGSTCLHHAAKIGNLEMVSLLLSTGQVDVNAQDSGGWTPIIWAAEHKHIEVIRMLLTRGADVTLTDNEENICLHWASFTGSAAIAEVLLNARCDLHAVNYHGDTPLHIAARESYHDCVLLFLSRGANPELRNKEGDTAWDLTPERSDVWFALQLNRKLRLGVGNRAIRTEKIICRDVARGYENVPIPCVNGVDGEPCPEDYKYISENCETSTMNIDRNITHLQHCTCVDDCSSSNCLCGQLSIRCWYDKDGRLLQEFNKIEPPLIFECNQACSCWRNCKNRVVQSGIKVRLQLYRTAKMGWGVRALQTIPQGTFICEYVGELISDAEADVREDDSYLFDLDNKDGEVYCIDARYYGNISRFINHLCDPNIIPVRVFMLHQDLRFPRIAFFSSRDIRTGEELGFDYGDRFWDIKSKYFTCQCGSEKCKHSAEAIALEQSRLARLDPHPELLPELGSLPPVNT
T1 sequence (Q9H9B1 2-1298 limits assumed): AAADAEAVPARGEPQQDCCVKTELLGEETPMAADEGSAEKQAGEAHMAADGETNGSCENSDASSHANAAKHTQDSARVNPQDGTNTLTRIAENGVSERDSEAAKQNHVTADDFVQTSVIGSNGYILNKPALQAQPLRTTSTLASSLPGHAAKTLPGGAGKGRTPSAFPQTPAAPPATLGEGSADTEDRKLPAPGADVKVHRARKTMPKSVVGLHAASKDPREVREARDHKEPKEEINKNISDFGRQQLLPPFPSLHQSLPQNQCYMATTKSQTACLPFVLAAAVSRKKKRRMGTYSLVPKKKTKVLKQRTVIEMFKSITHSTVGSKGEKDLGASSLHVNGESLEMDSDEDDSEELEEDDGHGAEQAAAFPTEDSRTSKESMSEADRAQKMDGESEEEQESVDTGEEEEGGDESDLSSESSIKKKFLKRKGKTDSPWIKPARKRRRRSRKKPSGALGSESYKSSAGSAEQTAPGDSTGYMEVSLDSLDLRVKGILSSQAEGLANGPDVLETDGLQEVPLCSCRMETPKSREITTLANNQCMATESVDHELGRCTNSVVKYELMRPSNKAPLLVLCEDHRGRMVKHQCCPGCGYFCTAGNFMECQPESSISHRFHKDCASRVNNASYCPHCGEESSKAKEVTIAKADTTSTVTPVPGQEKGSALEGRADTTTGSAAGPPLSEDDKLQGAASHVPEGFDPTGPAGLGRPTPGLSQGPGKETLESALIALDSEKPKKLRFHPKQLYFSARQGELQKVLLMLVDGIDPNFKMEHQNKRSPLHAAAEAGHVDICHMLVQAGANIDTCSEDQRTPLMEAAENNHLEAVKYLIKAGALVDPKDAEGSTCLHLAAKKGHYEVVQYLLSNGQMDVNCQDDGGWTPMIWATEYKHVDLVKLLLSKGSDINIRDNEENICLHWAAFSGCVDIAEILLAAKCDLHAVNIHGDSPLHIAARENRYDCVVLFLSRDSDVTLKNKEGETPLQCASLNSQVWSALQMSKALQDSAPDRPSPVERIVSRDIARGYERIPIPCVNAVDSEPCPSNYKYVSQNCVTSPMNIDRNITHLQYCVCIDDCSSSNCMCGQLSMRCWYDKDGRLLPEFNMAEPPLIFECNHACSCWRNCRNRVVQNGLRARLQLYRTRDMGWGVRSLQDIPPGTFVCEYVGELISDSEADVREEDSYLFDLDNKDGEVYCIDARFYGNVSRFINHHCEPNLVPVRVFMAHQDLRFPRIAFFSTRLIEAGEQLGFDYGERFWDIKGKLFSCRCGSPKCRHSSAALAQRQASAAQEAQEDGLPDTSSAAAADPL

[2] = system: 3×MBT domain of L3MBTL1; test: Triple SILAC pull-down, 3xMBT/3xMBTD355N ratio (cytoplasmic, nuclear and chromatin fractions of 293T cells); type: binding, human; conditions: for 3xMBT/D355N UNC Heavy: experiment with UNC0638 in heavy SILAC media; for 3xMBT/D355N UNC Light: experiment with UNC0638 in light SILAC media;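 for all read-outs here: proteins quantified with MaxQuant, requiring at least two unique peptides and quantification in both label directions, normalized to the mean of proteins from a digested loading control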
[3] = SILAC ratio DMSO/UNC0638 of protein pulled down with 3xMBT
[4] = SILAC ratio, pull-down 3xMBT vs 3xMBTD355N
[5] = SILAC ratio DMSO relative to UNC0638, pull-down with 3xMBT, all values in log base 2
[6] = SILAC ratio 3xMBT vs 3xMBTD355N pull-down, 293T cells, all values in log base 2

Substance	Relative to UNC0638 UNC Heavy [1, 3]	Relative to UNC0638 UNC Light [1, 3]	Relative to UNC0638 Average [1]	3xMBT/D355N UNC Heavy [2, 4]	3xMBT/D355N UNC Light [2, 4]	Relative to UNC0638 UNC Heavy [1, 5]	Relative to UNC0638 UNC Light [1, 5]	Relative to UNC0638 Average ([1]; all values in log base 2)	3xMBT/D355N UNC Heavy [2, 6]	3xMBT/D355N UNC Light [2, 6]
FOCAD	0.20 log base 2	0.20 log base 2	0.20 log base 2	1.83 log base 2	2.73 log base 2					
FXR1	1.23 log base 2	−1.01 log base 2	0.11 log base 2	1.60 log base 2	1.73 log base 2					
G3BP1 [Hit G3BP1]	0.23 log base 2	0.15 log base 2	0.19 log base 2	2.02 log base 2	2.72 log base 2					
G6PD [Hit G6PD]						−0.20 log base 2	−0.01 log base 2	−0.10 log base 2	0.75 log base 2	1.96 log base 2
GAPDH						0.14 log base 2	−0.24 log base 2	−0.05 log base 2	1.86 log base 2	1.59 log base 2
GRB2						0.36 log base 2	−0.45 log base 2	−0.05 log base 2	3.13 log base 2	1.36 log base 2
GRWD1	0.24 log base 2	0.09 log base 2	0.17 log base 2	2.87 log base 2	2.55 log base 2					
GSK3B	0.41 log base 2	0.03 log base 2	0.22 log base 2	1.95 log base 2	2.25 log base 2					
GTF3C1	1.93 log base 2	−0.06 log base 2	0.93 log base 2	0.63 log base 2	2.08 log base 2					
HDGF	0.23 log base 2	0.22 log base 2	0.23 log base 2	1.65 log base 2	2.78 log base 2					
HIST1H1C	0.18 log base 2	0.15 log base 2	0.17 log base 2	5.16 log base 2	4.61 log base 2					
HNRNPAB	0.09 log base 2	0.32 log base 2	0.20 log base 2	4.00 log base 2	4.21 log base 2					
